From the supplement of paper PMC10567573

B1: FCHO1 (parent)
chain: FSDPSQSDPETKDFWLNMAALTEA
B2: EPB41L3 (parent)
chain: SDYISEFRFAPNHTKELEDKVIEL

Variants of: B1
Experiment: protein stability index of a GFP-peptide fusion (GPS, HEK-293T) (PSI 1-6); higher = more stable
Details: c terminus: a fixed tail appended
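Note: lentivirally expressed fusions sorted by FACS into six bins by GFP to DsRed ratio, PSI derived from sequencing read proportions per bin multiplied by bin number.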

Row | Variant | protein stability index
1 | FSDPSQSDPETKRFWLNMAALTEA | 1.97
2 | FSDPSGSDPETKDFWLNMAALTEA | 2.25
3 | FSDPSLSDPETKDFWLNMAALTEA | 2.55
4 | FSDPSQSDPETKDFWLNMAALTGA | 2.61
5 | FSDPSQSDDETKDFWLNMAALTEA | 3.7
6 | FIDPSQSDPETKDFWLNMAALTEA | 2.8

Variants of: B2
Experiment: as above
Details: c terminus: a fixed tail appended

Row | Variant | protein stability index
7 | SDYISPFRFAPNHTKELEDKVIEL | 2.43
8 | SDYISHFRFAPNHTKELEDKVIEL | 1.43
9 | SDYISGFRFAPNHTKELEDKVIEL | 2.28
10 | SDYISDFRFAPNHTKELEDKVIEL | 1.93
11 | SDYISMFRFAPNHTKELEDKVIEL | 1.92
12 | SDYISLFRFAPNHTKELEDKVIEL | 1.84
13 | SDYISVFRFAPNHTKELEDKVIEL | 2.06
14 | SDYISNFRFAPNHTKELEDKVIEL | 1.83
15 | SDYISWFRFAPNHTKELEDKVIEL | 2.23
16 | SDYISFFRFAPNHTKELEDKVIEL | 1.52
17 | SDYISQFRFAPNHTKELEDKVIEL | 2.02
18 | SDYISTFRFAPNHTKELEDKVIEL | 1.82
19 | SDYISYFRFAPNHTKELEDKVIEL | 1.84
20 | SDYISAFRFAPNHTKELEDKVIEL | 1.67
21 | SDYISIFRFAPNHTKELEDKVIEL | 2.12
22 | SDYISKFRFAPNHTKELEDKVIEL | 1.85
23 | SDYISSFRFAPNHTKELEDKVIEL | 2
24 | SDYISRFRFAPNHTKELEDKVIEL | 2.13
25 | SDYISCFRFAPNHTKELEDKVIEL | 1.92
26 | SDYIPEFRFAPNHTKELEDKVIEL | 2.24
27 | SDYIMEFRFAPNHTKELEDKVIEL | 1.27
28 | SDYIWEFRFAPNHTKELEDKVIEL | 1.82

Row | Variant | protein stability index
29 | SDYIYEFRFAPNHTKELEDKVIEL | 1.66
30 | SDYIREFRFAPNHTKELEDKVIEL | 2.62
31 | SDYIEEFRFAPNHTKELEDKVIEL | 3.79
32 | SDYIKEFRFAPNHTKELEDKVIEL | 2.75
33 | SDYINEFRFAPNHTKELEDKVIEL | 2.22
34 | SDYIIEFRFAPNHTKELEDKVIEL | 2.02
35 | SDYICEFRFAPNHTKELEDKVIEL | 1.97
36 | SDYIAEFRFAPNHTKELEDKVIEL | 1.93
37 | SDYITEFRFAPNHTKELEDKVIEL | 2.18
38 | SDYIDEFRFAPNHTKELEDKVIEL | 3.8
39 | SDYIFEFRFAPNHTKELEDKVIEL | 1.74
40 | SDYIGEFRFAPNHTKELEDKVIEL | 1.8
41 | SDYIVEFRFAPNHTKELEDKVIEL | 2.19
42 | SDYILEFRFAPNHTKELEDKVIEL | 1.92
43 | SDYIQEFRFAPNHTKELEDKVIEL | 2.7
44 | SDYIHEFRFAPNHTKELEDKVIEL | 2.15
45 | SDYISEFRFHPNHTKELEDKVIEL | 1.86
46 | SDYISEFRFFPNHTKELEDKVIEL | 3.3
47 | SDYISEFRFLPNHTKELEDKVIEL | 3.45
48 | SDYISEFRFGPNHTKELEDKVIEL | 3.92
49 | SDYISEFRFIPNHTKELEDKVIEL | 2.33
50 | SDYISEFRFEPNHTKELEDKVIEL | 4.21

Row | Variant | protein stability index
51 | SDYISEFRFMPNHTKELEDKVIEL | 3
52 | SDYISEFRFKPNHTKELEDKVIEL | 3.99
53 | SDYISEFRFDPNHTKELEDKVIEL | 4.37
54 | SDYISEFRFNPNHTKELEDKVIEL | 3.33
55 | SDYISEFRFCPNHTKELEDKVIEL | 1.56
56 | SDYISEQRFAPNHTKELEDKVIEL | 4.79
57 | SDYISEWRFAPNHTKELEDKVIEL | 2.42
58 | SDYISESRFAPNHTKELEDKVIEL | 4.12
59 | SDYISETRFAPNHTKELEDKVIEL | 4.57
60 | SDYISEHRFAPNHTKELEDKVIEL | 4.26
61 | SDYISEMRFAPNHTKELEDKVIEL | 4
62 | SDYISEKRFAPNHTKELEDKVIEL | 4.38
63 | SDYISELRFAPNHTKELEDKVIEL | 3.6
64 | SDYISEDRFAPNHTKELEDKVIEL | 4.89
65 | SDYISECRFAPNHTKELEDKVIEL | 4.2
66 | SDYISEERFAPNHTKELEDKVIEL | 4.96
67 | SDYISENRFAPNHTKELEDKVIEL | 4.96
68 | SDYISEIRFAPNHTKELEDKVIEL | 3.94
69 | SDYISEVRFAPNHTKELEDKVIEL | 4.46
70 | SDYISEARFAPNHTKELEDKVIEL | 4.4
71 | SDYISEPRFAPNHTKELEDKVIEL | 4.75
72 | SDYISEYRFAPNHTKELEDKVIEL | 3.71

Row | Variant | protein stability index
73 | SDYISEGRFAPNHTKELEDKVIEL | 4.91
74 | SDYISERRFAPNHTKELEDKVIEL | 4.4
75 | SDYHSEFRFAPNHTKELEDKVIEL | 3.96
76 | SDYPSEFRFAPNHTKELEDKVIEL | 3.76
77 | SDYSSEFRFAPNHTKELEDKVIEL | 3.49
78 | SDYVSEFRFAPNHTKELEDKVIEL | 3.02
79 | SDYESEFRFAPNHTKELEDKVIEL | 3.92
80 | SDYCSEFRFAPNHTKELEDKVIEL | 3.6
81 | SDYDSEFRFAPNHTKELEDKVIEL | 4.2
82 | SDYYSEFRFAPNHTKELEDKVIEL | 3.65
83 | SDYKSEFRFAPNHTKELEDKVIEL | 3.23
84 | SDYRSEFRFAPNHTKELEDKVIEL | 3.13
85 | SDYWSEFRFAPNHTKELEDKVIEL | 3.03
86 | SDYFSEFRFAPNHTKELEDKVIEL | 2.77
87 | SDYASEFRFAPNHTKELEDKVIEL | 3.63
88 | SDYMSEFRFAPNHTKELEDKVIEL | 3.18
89 | SDYTSEFRFAPNHTKELEDKVIEL | 2.65
90 | SDYQSEFRFAPNHTKELEDKVIEL | 3.98
91 | SDYGSEFRFAPNHTKELEDKVIEL | 4.11
92 | SDYNSEFRFAPNHTKELEDKVIEL | 4.27
93 | SDYLSEFRFAPNHTKELEDKVIEL | 2.36
94 | SDYISEFREAPNHTKELEDKVIEL | 4.97
